Measured values as given in patent publication US20120034160A1 (AbbVie / Abbott, published 2012).
Several values for one entry are separate records, joined by “and”; a condition that tells them apart may be missing. Equal values may be shown once.

T1: Recombinant Human IL-17 (human, UniProt Q16552 20-155, limits assumed)
T1 sequence (looked up): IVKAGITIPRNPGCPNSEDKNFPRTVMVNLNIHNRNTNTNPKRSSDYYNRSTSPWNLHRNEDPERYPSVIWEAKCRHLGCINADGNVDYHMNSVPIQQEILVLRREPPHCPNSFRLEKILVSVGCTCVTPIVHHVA

T2: Recombinant Human IL-17 (human, UniProt Q16552 20-155, limits assumed)
T2 construct: bought reagent
T2 sequence (looked up): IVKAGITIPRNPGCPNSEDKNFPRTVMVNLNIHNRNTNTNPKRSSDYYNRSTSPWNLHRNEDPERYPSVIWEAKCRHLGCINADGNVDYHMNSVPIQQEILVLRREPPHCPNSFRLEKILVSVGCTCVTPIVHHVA


Columns and labels:
Recombinant Human IL-17 [1] = biological target: T1, Recombinant Human IL-17; assay: cell-based or functional assay
Recombinant Human IL-17 [2] = biological target: T1, Recombinant Human IL-17; assay: Biacore SPR; N-terminal VD
How it was run: (§1)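 SPR, 25° C, HBS-EP (10 mM HEPES pH 7.4, 150 mM NaCl, 3 mM EDTA, 0.005% P20). Capture via anti-mouse IgG Fcγ chip; analyte 10−200 nM at 25 μl/min. 1:1 Langmuir global fit; KD = koff/kon.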

Recombinant Human IL-1β [3] = biological target: T3, Recombinant Human IL-1β (human, UniProt P01584 117-269); assay: cell-based or functional assay
Recombinant Human IL-1β [4] = biological target: T3, Recombinant Human IL-1β; assay: Biacore SPR; C-terminal VD
How it was run: as §1

Recombinant Human IL-17 [5] = biological target: T1, Recombinant Human IL-17; assay: Biacore SPR
Protocol: (§2) The BIACORE assay (Biacore, Inc, Piscataway, N.J.) determines the affinity of antibodies or DVD-Ig with kinetic measurements of on-rate and off-rate constants. Binding of antibodies or DVD-Ig to a target antigen (for example, a purified recombinant target antigen) was determined by surface plasmon resonance-based measurements with a Biacore® 1000 or 3000 instrument (Biacore® AB, Uppsala, Sweden) using running HBS-EP (10 mM HEPES [pH 7.4], 150 mM NaCl, 3 mM EDTA, and 0.005% surfactant P20) at 25° C. All chemicals were obtained from Biacore® AB (Uppsala, Sweden) or otherwise from a different source as described in the text. For example, approximately 5000 RU of goat anti-mouse IgG, (Fcγ), fragment specific polyclonal antibody (Pierce Biotechnology Inc, Rockford, Ill.) diluted in 10 mM sodium acetate (pH 4.5) was directly immobilized across a CM5 research grade biosensor chip using a standard amine coupling kit according to manufacturer's instructions and procedures at 25 μg/ml. Unreacted moieties on the biosensor surface were blocked with ethanolamine. Modified carboxymethyl dextran surface in flowcell 2 and 4 was used as a reaction surface. Unmodified carboxymethyl dextran without goat anti-mouse IgG in flow cell 1 and 3 was used as the reference surface. For kinetic analysis, rate equations derived from the 1:1 Langmuir binding model were fitted simultaneously to association and dissociation phases of all eight injections (using global fit analysis) with the use of Biaevaluation 4.0.1 software. Purified antibodies or DVD-Ig were diluted in HEPES-buffered saline for capture across goat anti-mouse IgG specific reaction surfaces. Antibodies or DVD-Ig to be captured as a ligand (25 μg/ml) were injected over reaction matrices at a flow rate of 5 μl/min. The association and dissociation rate constants, kₒₙ (M⁻¹s⁻¹) and koff (s⁻¹) were determined under a continuous flow rate of 25 μl/min. Rate constants were derived by making kinetic binding measurements at different antigen concentrations ranging from 10−200 nM. The equilibrium dissociation constant (M) of the reaction between antibodies or DVD-Igs and the target antigen was then calculated from the kinetic rate constants by the following formula: KD=koff/kₒₙ. Binding was recorded as a function of time and kinetic rate constants are calculated.

Recombinant Human IL-17 [6] = biological target: T2, Recombinant Human IL-17; assay: Biacore SPR; first run, parent printed with DVD1282-DVD1291; kon 2.80E+03, koff 2.40E-05
Protocol: The BIACORE assay (Biacore, Inc, Piscataway, N.J.) determines the affinity of antibodies or DVD-Ig with kinetic measurements of on-rate and off-rate constants. Binding of antibodies or DVD-Ig to a target antigen (for example, a purified recombinant target antigen) was determined by surface plasmon resonance-based measurements with a Biacore® 1000 or 3000 instrument (Biacore® AB, Uppsala, Sweden) using running HBS-EP (10 mM HEPES [pH 7.4], 150 mM NaCl, 3 mM EDTA, and 0.005% surfactant P20) at 25° C. All chemicals were obtained from Biacore® AB (Uppsala, Sweden) or otherwise from a different source as described in the text. […] The association and dissociation rate constants, kₒₙ (M⁻¹s⁻¹) and koff (s⁻¹) were determined under a continuous flow rate of 25 μl/min. […] The equilibrium dissociation constant (M) of the reaction between antibodies or DVD-Igs and the target antigen was then calculated from the kinetic rate constants by the following formula: KD=koff/kₒₙ. Binding was recorded as a function of time and kinetic rate constants are calculated.

Recombinant Human IL-17 [7] = biological target: T2, Recombinant Human IL-17; assay: Biacore SPR
Protocol: as §2

Row | N-terminal VD IL-17 Neutralization Assay EC50 (Recombinant Human IL-17 [1]) [nM] | Kd (Recombinant Human IL-17 [2]) [nM] | koff (Recombinant Human IL-17 [2]) [s⁻¹] | kon (Recombinant Human IL-17 [2]) [M⁻¹ s⁻¹] | C-Terminal VD IL-1β Neutralization Assay EC50 (Recombinant Human IL-1β [3]) [nM] | Kd (Recombinant Human IL-1β [4]) [nM] | koff (Recombinant Human IL-1β [4]) [s⁻¹] | kon (Recombinant Human IL-1β [4]) [M⁻¹ s⁻¹] | koff (Recombinant Human IL-17 [7]) | Binder | also measured
1 | 0.0043 | 0.011 | 4.1e-05 | 3.9e+06 | 0.628 | < 0.001 | < 1e-06 | 960000 |  | DVD1642 (bispecific antibody, human IgG1, kappa, V1/V2 vectors: wild type hIgG1, kappa) heavy: not shown light: EIVLTQSPDFQSVTPKEKVTITCRASQNIGSELHWYQQKPDQSPKLLIKYASHSISGVPSRFSGSGSGTDFTLTINGLEAEDAATYYCHQSDTLPHTFGQGTKVDIKRTVAAPDIQMTQSPSSLSASVGDRVTITCRASGNIHNYLTWYQQTPGKAPKLLIYNAKTLADGVPSRFSGSGSGTDYTFTISSLQPEDIATYYCQHFWSIPYTFGQGTKLQITRTVAAPSVFIFPPSDEQLKSGTASVVCLLNNFYPREAKVQWKVDNALQSGNSQESVTEQDSKDSTYSLSSTLTLSKADYEKHKVYACEVTHQGLSSPVTKSFNRGEC | 
2 | 0.0089 | 0.02 | 6.2e-05 | 3.1e+06 | 16.2 | 0.56 | 0.00075 | 1.3e+06 |  | DVD1648 (bispecific antibody, human IgG1, kappa, DVD-Ig: outer AB275, inner AB272; V1/V2 vectors: wild type hIgG1, kappa) heavy: not shown light: EIVLTQSPDFQSVTPKEKVTITCRASQNIGSELHWYQQKPDQSPKLLIKYASHSISGVPSRFSGSGSGTDFTLTINGLEAEDAATYYCHQSDTLPHTFGQGTKVDIKRTVAAPETTVTQSPSSLSASVGDRVTITCITSTDIDVDMNWYQQKPGKPPKLLISQGNTLRPGVPSRFSSSGSGTDFTFTISSLQPEDFATYYCLQSDNLPLTFGQGTKLEIKRTVAAPSVFIFPPSDEQLKSGTASVVCLLNNFYPREAKVQWKVDNALQSGNSQESVTEQDSKDSTYSLSSTLTLSKADYEKHKVYACEVTHQGLSSPVTKSFNRGEC | 
3 |  |  |  |  |  |  |  |  |  | AB274 (antibody, human IgG1, kappa, V domains shown, Parent antibody) VH: EVQLVQSGAEVKKPGSSVKVSCKASGGSFGGYGIGWVRQAPGQGLEWMGGITPFFGFADYAQKFQGRVTITADESTTTAYMELSGLTSDDTAVYYCARDPNEFWNGYYSTHDFDSWGQGTTVTVSS VL: EIVLTQSPDFQSVTPKEKVTITCRASQDIGSELHWYQQKPDQPPKLLIKYASHSTSGVPSRFSGSGSGTDFTLTINGLEAEDAGTYYCHQTDSLPYTFGPGTKVDIKR | IL-17 Neutralization Assay EC50 (Recombinant Human IL-17 [1]): 0.002 nM; Kd (Recombinant Human IL-17 [5]): 0.0068 nM; koff (Recombinant Human IL-17 [5]): 1.8e-05 s⁻¹; kon (Recombinant Human IL-17 [5]): 2.7e+06 M⁻¹ s⁻¹
4 |  |  |  |  |  |  |  |  |  | AB275 (antibody, human IgG1, kappa, V domains shown, constants by vectors: V1 wt hIgG1, V2 kappa) VH: EVQLVQSGAEVKKPGESVKISCKASGGSFRSYGISWVRQAPGQGLEWMGGITHFFGITDYAQKFQGRVTITADESTTTAYMELSGLTSDDTAVYYCAREPNDFWNGYYDTHDFDSWGQGTTVTVSS VL: EIVLTQSPDFQSVTPKEKVTITCRASQNIGSELHWYQQKPDQSPKLLIKYASHSISGVPSRFSGSGSGTDFTLTINGLEAEDAATYYCHQSDTLPHTFGQGTKVDIKR | Kd (Recombinant Human IL-17 [6]): 8.8 nM; Kd (Recombinant Human IL-17 [7]): 0.019 nM
5 |  |  |  |  |  |  |  |  | 2e-05 s⁻¹ and 2.1e-05 s⁻¹ and 1.8e-05 s⁻¹ | AB274 (antibody, human IgG1, kappa, V domains shown, constants by vectors: V1 wt hIgG1, V2 kappa) VH: EVQLVQSGAEVKKPGSSVKVSCKASGGSFGGYGIGWVRQAPGQGLEWMGGITPFFGFADYAQKFQGRVTITADESTTTAYMELSGLTSDDTAVYYCARDPNEFWNGYYSTHDFDSWGQGTTVTVSS VL: EIVLTQSPDFQSVTPKEKVTITCRASQDIGSELHWYQQKPDQPPKLLIKYASHSTSGVPSRFSGSGSGTDFTLTINGLEAEDAGTYYCHQTDSLPYTFGPGTKVDIKR | 
6 |  |  |  |  |  |  |  |  | ≤ 1e-05 s⁻¹ and 1.2e-05 s⁻¹ and 1.3e-05 s⁻¹ | AB273 (antibody, human IgG1, kappa, V domains shown, constants by vectors: V1 wt hIgG1, V2 kappa) VH: EVQLVQSGAEVKKPGSSVKVSCKASGYTFTDYEIHWVRQAPGQGLEWMGVNDPESGGTFYNQKFDGRVTLTADESTSTAYMELSSLRSEDTAVYYCTRYSKWDSFDGMDYWGQGTTVTVSS VL: DIQMTQSPSSLSASVGDRVTITCRASSGIISYIDWFQQKPGKAPKRLIYATFDLASGVPSRFSGSGSGTDYTLTISSLQPEDFATYYCRQVGSYPETFGQGTKLEIKR | 
